Data set [1] concerns the molecule itself. Briefly: cryo-EM structure; reconstituted tE2+PX30 subcomplex of separately expressed components; icosahedral (map R1) and tetrahedral (maps R2X/Y) reconstructions.
Data set [2] deals with the molecule itself. Briefly: cryo-EM structure; co-expressed tE2/PX261 subcomplex; reconstruction under icosahedral symmetry.
Data set [3] deals with the molecule itself. Briefly: cryo-EM structure; native PDC purified from N. crassa mitochondria; single-particle reconstructions under icosahedral and tetrahedral symmetry (classes X, Y, N).

Experimental findings from article doi:10.1101/2020.08.13.232140, “Assembly and symmetry of the fungal E3BP-containing core of the Pyruvate Dehydrogenase Complex” (bioRxiv, 2020) are described below.

One may read the stoichiometry N as the number of molecules, sites or subunits per partner or assembly.

B1: N. crassa E2 core-forming domain (tE2), separately expressed (domain or fragment, UniProt P20285 225-458, looked up)
chain: AAYTDVPISGMRKTIAARLKESVTENPHFFVSTNLSVSKLLKLRQALNSSADGRYKLSVNDFLIKAMGIASKRVPTVNSSWRDGVIRQFETVDVSVAVATPNGLITPIVKGVEGKGLESISAAVKELAKKARDGKLKPEEYQGGSISISNMGMNPAVQSFTAIINPPQAAILAVGAPQKVAVPVENEDGTTGVSWDEQIIVTASFDHKVVDGAVGAEWIRELKKVIENPLELLL
notes: E2 of the pyruvate dehydrogenase complex, Neurospora crassa, residues 225-458 of UniProt P20285 (core-forming catalytic domain); model built for 227-458; pRSET vector; the His6-tag is cleavable with thrombin; Icosahedral assembly; source: E. coli Rosetta2 (DE3), single expression
B1: the binding result in data set [1] was “binds”.

B2: untagged N. crassa E2 core-forming domain (tE2), co-expressed with PX constructs (domain or fragment, UniProt P20285 225-458, looked up)
chain: AAYTDVPISGMRKTIAARLKESVTENPHFFVSTNLSVSKLLKLRQALNSSADGRYKLSVNDFLIKAMGIASKRVPTVNSSWRDGVIRQFETVDVSVAVATPNGLITPIVKGVEGKGLESISAAVKELAKKARDGKLKPEEYQGGSISISNMGMNPAVQSFTAIINPPQAAILAVGAPQKVAVPVENEDGTTGVSWDEQIIVTASFDHKVVDGAVGAEWIRELKKVIENPLELLL
notes: E2 of the pyruvate dehydrogenase complex, Neurospora crassa, residues 225-458 of UniProt P20285 (core-forming catalytic domain); petDuet dual-expression vectors were built with the single-expression genes as template; PX stood in the His-tagged MCS1, tE2 untagged; also called untagged E2 core-forming domain; PDC core; source: E. coli Rosetta2 (DE3), co-expressed with His-tagged PX from petDuet, …
Regarding B2, the binding result in data set [2] was “binds”.

B3: E2 of the native N. crassa pyruvate dehydrogenase complex (PDC core) (natural protein, UniProt P20285 29-458, looked up)
chain: ASYPPHTVVKMPALSPTMTSGGIGAWQKKPGDKIEPGEVLVEIETDKAQMDFEFQEEGVLAKILKDSGEKDVAVGNPIAILVEEGTDVNAFKDFTLKDAGGETSPAVPKDEPKNESTASAPTPAPTPAPEPENTSFTGRFQTALEREPNALPAAKRLAREKGIDLRNVKGSGPGGKITEEDVKKALASAPAAGAAAAAYTDVPISGMRKTIAARLKESVTENPHFFVSTNLSVSKLLKLRQALNSSADGRYKLSVNDFLIKAMGIASKRVPTVNSSWRDGVIRQFETVDVSVAVATPNGLITPIVKGVEGKGLESISAAVKELAKKARDGKLKPEEYQGGSISISNMGMNPAVQSFTAIINPPQAAILAVGAPQKVAVPVENEDGTTGVSWDEQIIVTASFDHKVVDGAVGAEWIRELKKVIENPLELLL
notes: E2 (acetyltransferase) component of the pyruvate dehydrogenase complex, Neurospora crassa, UniProt P20285; residues 232-458 identified in the native reconstruction; the recombinant E2 construct starts at residue 29; Strain WT STA74 / ATCC 14692; also called E2 core; source: endogenous, PDC purified from N. crassa mitochondria (sucrose cushion, sucrose gradient, SEC); copies: 60
Regarding B3, in data set [3], the “stoichiometry N” value is 60.
